According to paper PMC5182127, “Cellular and viral peptides bind multiple sites on the N‐terminal domain of clathrin” (Traffic (Copenhagen, Denmark), 2016):

Tests used:
Conditions in all cases: both partners purified
[1] = biological target: T1, clathrin heavy chain N‐terminal domain (1‐363) (bovine, UniProt P49951 1-363); experiment: crystal structure; co-crystals of NTD (14 or 20 mg/mL) with 3.4-3.6 mM peptide, sitting drop, 20°C, sodium malonate; peptide also in the cryoprotectant
T1 construct: also called NTD; clathrin NTD; source: E. coli BL21(DE3) pLysS, purified (glutathione Sepharose, thrombin cleavage, Superdex 200); not shown: GST, N-terminal, cleaved
T1 sequence (looked up): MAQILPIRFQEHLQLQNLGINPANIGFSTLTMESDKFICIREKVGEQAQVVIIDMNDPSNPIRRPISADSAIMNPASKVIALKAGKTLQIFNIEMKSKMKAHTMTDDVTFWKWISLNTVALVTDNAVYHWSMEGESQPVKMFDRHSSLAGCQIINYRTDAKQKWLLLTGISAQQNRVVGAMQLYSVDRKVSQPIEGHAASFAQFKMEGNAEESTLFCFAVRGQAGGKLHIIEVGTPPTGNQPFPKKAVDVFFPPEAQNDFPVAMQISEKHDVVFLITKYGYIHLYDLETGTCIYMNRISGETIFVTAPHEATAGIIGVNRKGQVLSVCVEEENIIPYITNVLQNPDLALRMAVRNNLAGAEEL

GST‐AmphCBM = biological target: T2, GST‐AmphCBM (human, UniProt P49418 349-358); experiment: pull-down; 500 µg GST or GST-peptide bait on glutathione sepharose 4B; 0.1 mg/mL wild-type or mutant His-NTD-NEMO as prey, 2 h, 4°C; 25 mM HEPES-KOH, 125 mM potassium acetate, 5 mM magnesium acetate, 2 mM EDTA, 2 mM EGTA, 1 mM DTT, pH 7.2; washes with PBS; immunoblot with anti-clathrin NTD antibody
T2 construct: also called human amphiphysin I CBM; source: E. coli BL21(DE3) pLysS, purified (glutathione resin, SEC); not shown: GST, N-terminal, kept
T2 chain (looked up): ETLLDLDFDP

GST‐AP2CBM = biological target: T3, GST‐AP2CBM (human, UniProt P63010 629-640); experiment: as above
T3 construct: also called CBM from flexible hinge of β2 adaptin subunit of human AP2; source: E. coli BL21(DE3) pLysS, purified (glutathione resin, SEC); not shown: GST, N-terminal, kept
T3 chain (looked up): GDLLNLDLGPPV

GST‐Amph4T1 = biological target: T4, GST‐Amph4T1 (rat, UniProt O08838 349-356); experiment: as above
T4 construct: also called extended amphiphysin CBM construct; source: E. coli BL21(DE3) pLysS, purified (glutathione resin, SEC)
T4 chain: ETLLDLDFLERPHRD

GST‐AP2arrS = biological target: T5, GST‐AP2arrS (human, UniProt P63010 623-632); experiment: as above
T5 construct: also called extended arrestin motif (LLGDLL); source: E. coli BL21(DE3) pLysS, purified (glutathione resin, SEC); not shown: GST, N-terminal, kept
T5 chain (looked up): SQGDLLGDLL

B1: HDAg‐L2pep (peptide)
peptide: SPRLPLLES
notes: also called peptide of the putative CBM of HDAg-L2; source: synthetic peptide, bought: Designer Bioscience
binding result [1]: binds

B2: AP2CBMpep (peptide)
peptide: CGDLLNLDLG
notes: also called peptide of the β2 adaptin CBM; source: synthetic peptide, bought: Designer Bioscience
binding result [1]: binds

B3: Amph4T1pep (peptide)
peptide: ETLLDLDFLE
notes: source: synthetic peptide, bought: Genscript
binding result [1]: binds

B4: AmphCBMpep (peptide)
peptide: ETLLDLDFDP
notes: also called peptide of the amphiphysin CBM; source: synthetic peptide, bought: Genscript
binding result [1]: binds

B5: His‐NTD‐NEMO Q89A + F91K (other, UniProt P49951 1-363, looked up)
chain: MAQILPIRFQEHLQLQNLGINPANIGFSTLTMESDKFICIREKVGEQAQVVIIDMNDPSNPIRRPISADSAIMNPASKVIALKAGKTLAIKNIEMKSKMKAHTMTDDVTFWKWISLNTVALVTDNAVYHWSMEGESQPVKMFDRHSSLAGCQIINYRTDAKQKWLLLTGISAQQNRVVGAMQLYSVDRKVSQPIEGHAASFAQFKMEGNAEESTLFCFAVRGQAGGKLHIIEVGTPPTGNQPFPKKAVDVFFPPEAQNDFPVAMQISEKHDVVFLITKYGYIHLYDLETGTCIYMNRISGETIFVTAPHEATAGIIGVNRKGQVLSVCVEEENIIPYITNVLQNPDLALRMAVRNNLAGAEELKSSVVGSERKRGMQLEDLKQQLQQAEEALVAKQEVIDKLKEEAEQHKIVMETVPVLKAQADIYKADFQAERQAREKLAEKKELLQEQLEQLQREYSKLKASCQESARIEDMRKRHVEVSQ
notes: also called clathrin box mutant; not shown: His6, N-terminal, kept
binding result (GST‐AmphCBM): binds | binding result (GST‐AP2CBM): binds | binding result (GST‐Amph4T1): binds

B6: His‐NTD‐NEMO Q192Y (other, UniProt P49951 1-363, looked up)
chain: MAQILPIRFQEHLQLQNLGINPANIGFSTLTMESDKFICIREKVGEQAQVVIIDMNDPSNPIRRPISADSAIMNPASKVIALKAGKTLQIFNIEMKSKMKAHTMTDDVTFWKWISLNTVALVTDNAVYHWSMEGESQPVKMFDRHSSLAGCQIINYRTDAKQKWLLLTGISAQQNRVVGAMQLYSVDRKVSYPIEGHAASFAQFKMEGNAEESTLFCFAVRGQAGGKLHIIEVGTPPTGNQPFPKKAVDVFFPPEAQNDFPVAMQISEKHDVVFLITKYGYIHLYDLETGTCIYMNRISGETIFVTAPHEATAGIIGVNRKGQVLSVCVEEENIIPYITNVLQNPDLALRMAVRNNLAGAEELKSSVVGSERKRGMQLEDLKQQLQQAEEALVAKQEVIDKLKEEAEQHKIVMETVPVLKAQADIYKADFQAERQAREKLAEKKELLQEQLEQLQREYSKLKASCQESARIEDMRKRHVEVSQ
notes: also called arrestin box mutant; not shown: His6, N-terminal, kept
binding result (GST‐AmphCBM): binds | binding result (GST‐AP2CBM): binds | binding result (GST‐Amph4T1): binds

B7: His‐NTD‐NEMO Q89A + F91K + Q192Y (other, UniProt P49951 1-363, looked up)
chain: MAQILPIRFQEHLQLQNLGINPANIGFSTLTMESDKFICIREKVGEQAQVVIIDMNDPSNPIRRPISADSAIMNPASKVIALKAGKTLAIKNIEMKSKMKAHTMTDDVTFWKWISLNTVALVTDNAVYHWSMEGESQPVKMFDRHSSLAGCQIINYRTDAKQKWLLLTGISAQQNRVVGAMQLYSVDRKVSYPIEGHAASFAQFKMEGNAEESTLFCFAVRGQAGGKLHIIEVGTPPTGNQPFPKKAVDVFFPPEAQNDFPVAMQISEKHDVVFLITKYGYIHLYDLETGTCIYMNRISGETIFVTAPHEATAGIIGVNRKGQVLSVCVEEENIIPYITNVLQNPDLALRMAVRNNLAGAEELKSSVVGSERKRGMQLEDLKQQLQQAEEALVAKQEVIDKLKEEAEQHKIVMETVPVLKAQADIYKADFQAERQAREKLAEKKELLQEQLEQLQREYSKLKASCQESARIEDMRKRHVEVSQ
notes: also called His‐NTD‐NEMO mutated at both the clathrin and arrestin boxes; not shown: His6, N-terminal, kept
binding result (GST‐AmphCBM): binds | binding result (GST‐Amph4T1): binds

B8: His‐NTD‐NEMO Q89A + F91K + F9W (other, UniProt P49951 1-363, looked up)
chain: MAQILPIRWQEHLQLQNLGINPANIGFSTLTMESDKFICIREKVGEQAQVVIIDMNDPSNPIRRPISADSAIMNPASKVIALKAGKTLAIKNIEMKSKMKAHTMTDDVTFWKWISLNTVALVTDNAVYHWSMEGESQPVKMFDRHSSLAGCQIINYRTDAKQKWLLLTGISAQQNRVVGAMQLYSVDRKVSQPIEGHAASFAQFKMEGNAEESTLFCFAVRGQAGGKLHIIEVGTPPTGNQPFPKKAVDVFFPPEAQNDFPVAMQISEKHDVVFLITKYGYIHLYDLETGTCIYMNRISGETIFVTAPHEATAGIIGVNRKGQVLSVCVEEENIIPYITNVLQNPDLALRMAVRNNLAGAEELKSSVVGSERKRGMQLEDLKQQLQQAEEALVAKQEVIDKLKEEAEQHKIVMETVPVLKAQADIYKADFQAERQAREKLAEKKELLQEQLEQLQREYSKLKASCQESARIEDMRKRHVEVSQ
notes: also called mutant with disrupted clathrin and Royle boxes; printed in the text as Q98A + F91K + F9W; not shown: His6, N-terminal, kept
binding result (GST‐AP2arrS): binds | binding result (GST‐AP2CBM): binds | binding result (GST‐Amph4T1): binds

B9: HDAg‐L1pep (peptide)
peptide: SDILFPADS
notes: also called peptide of the putative CBM of HDAg-L1; source: synthetic peptide, bought: Designer Bioscience
binding result [1]: binds

B10: AmphCBMlongpep (peptide)
peptide: ETLLDLDFDPFK
notes: as for B3
binding result [1]: binds
